Experimental data published in patent US20220135628A1 (OXFORD UNIVERSITY INNOVATION, published 2022).
Where two headings read alike, the source gives them in different places. No end group written: not given here.

T1: SpyTag002-MBP (also: fused to MBP, sequence and linker not given here)
T1 construct: not shown: construct pET28a SpyTag002-MBP, GenBank MF974389
T1 chain: VPTIVMVDAYKRYK

T2: SpyTag003 DA-MBP (also: fused to MBP, sequence and linker not given here)
T2 chain: RGVPHIVMVAAYKRYK


Tests used:
[1] = biological target: SpyTag003-MBP; test: SDS-PAGE with sfGFP fluorescence, pH 7.0, 25 C
Protocol: (§1) The sfGFP fusions were used to enable reactions to be carried out at concentrations as low as 10 nM. […] Percentage isopeptide product formation was calculated by dividing the intensity of the band for the covalent complex by the intensity of all the bands in the lane and multiplying by 100. […] Time-points were analysed during the linear portion of the reaction curve. […] Experiments were carried out in triplicate and the data represent the mean±1 standard deviation.

[2] = biological target: T1, SpyTag002-MBP; test: SDS-PAGE with sfGFP fluorescence, pH 7.0, 25 C
Protocol: as §1

[3] = biological target: T3, SpyTag-MBP; test: SDS-PAGE with sfGFP fluorescence, pH 7.0, 25 C
T3 construct: not shown: construct pET28a-SpyTag-MBP, Addgene 35050

[4] = biological target: SpyTag003-MBP; test: SDS-PAGE with sfGFP fluorescence, pH 7.0, 25 C; remark: listed apart in the source
Protocol: as §1

[5] = biological target: T2, SpyTag003 DA-MBP; test: isothermal titration calorimetry, 20 C, PBS pH 7.4, non-covalent complex
Protocol: Experiments were carried out using a Microcal PEAQ-ITC calorimeter (Malvern) at 20° C. in PBS pH 7.4. […] Analysis was carried out using a 1:1 binding model using MicroCal PEAQ-ITC Analysis software version 1.1.0.1262.

| Binder | Rate constant (second-order, isopeptide bond formation) [1] | Rate constant (second-order, isopeptide bond formation) [2] | Rate constant (second-order, isopeptide bond formation) [3] | Rate constant (second-order, isopeptide bond formation) [4] | Kd [5] |
| --- | --- | --- | --- | --- | --- |
| SpyCatcher003-sfGFP (designed binder, also called SpyCatcher003 fused to the N-terminus of super-folder GFP; not shown: super-folder GFP (sfGFP) C-terminal of the catcher) VTTLSGLSGEQGPSGDMTTEEDSATHIKFSKRDEDGRELAGATMELRDSSGKTISTWISDGHVKDFYLYPGKYTFVETAAPDGYEVATPIEFTVNEDGQVTVDGEATEGDAHT | 550000 M⁻¹ s⁻¹ | 83000 M⁻¹ s⁻¹ | 24000 M⁻¹ s⁻¹ | 550000 M⁻¹ s⁻¹ | – |
| SpyCatcher003 (designed binder, also called 003 Catcher) VTTLSGLSGEQGPSGDMTTEEDSATHIKFSKRDEDGRELAGATMELRDSSGKTISTWISDGHVKDFYLYPGKYTFVETAAPDGYEVATPIEFTVNEDGQVTVDGEATEGDAHT | – | – | – | – | < 0.01 µM |
